# Measurements published in US20170253670A1.
# Assays:
# [1] = molecular target: cynomolgus FolR1 monovalent Fc fusion, biotinylated (cynomolgus); assay: SPR Biacore, bivalent avidity (apparent KD), antigen on chip
# [2] = molecular target: human FolR1 monovalent Fc fusion, biotinylated (human) (UniProt P15328); assay: SPR Biacore, bivalent avidity, antigen on chip
# [3] = molecular target: cynomolgus FolR1 monovalent Fc fusion, biotinylated (cynomolgus); assay: SPR Biacore, bivalent avidity, antigen on chip
# [4] = molecular target: human FolR1 monovalent Fc fusion, biotinylated (human) (UniProt P15328); assay: SPR Biacore, monovalent, binder captured via anti-Fab
# [5] = molecular target: cynomolgus FolR1 monovalent Fc fusion, biotinylated (cynomolgus); assay: as above
# [6] = molecular target: human FolR1 monovalent Fc fusion, biotinylated (human) (UniProt P15328); assay: SPR Biacore, bivalent avidity (apparent KD), antigen on chip
# Chain of cynomolgus FolR1 monovalent Fc fusion, biotinylated (cynomolgus) (chain, as listed by the source limits assumed, form in doubt): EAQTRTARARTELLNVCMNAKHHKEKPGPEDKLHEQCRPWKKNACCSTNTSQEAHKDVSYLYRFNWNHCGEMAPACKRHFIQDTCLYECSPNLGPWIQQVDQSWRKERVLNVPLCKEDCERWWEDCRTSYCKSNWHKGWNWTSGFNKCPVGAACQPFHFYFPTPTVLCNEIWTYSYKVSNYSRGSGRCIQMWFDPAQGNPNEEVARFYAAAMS
# Chain of human FolR1 monovalent Fc fusion, biotinylated (human) (P15328 25-233 limits assumed): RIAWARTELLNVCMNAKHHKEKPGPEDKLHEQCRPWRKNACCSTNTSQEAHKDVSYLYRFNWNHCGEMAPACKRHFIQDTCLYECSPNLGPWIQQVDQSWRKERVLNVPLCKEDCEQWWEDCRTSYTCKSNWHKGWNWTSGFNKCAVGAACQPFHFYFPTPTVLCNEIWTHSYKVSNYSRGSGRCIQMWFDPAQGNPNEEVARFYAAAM
Kd [1] [nM],koff [2] [s⁻¹],kon [2] [M⁻¹ s⁻¹],koff [3] [s⁻¹],kon [3] [M⁻¹ s⁻¹],koff [4] [s⁻¹],kon [4] [M⁻¹ s⁻¹],Kd [5] [nM],koff [5] [s⁻¹],kon [5] [M⁻¹ s⁻¹],Kd [6] [nM],Kd [4] [nM],Binder
0.65,0.0009,1.23e+06,0.000868,1.33e+06,0.023,417000,67.3,0.0373,553000,,,"Farletuzumab (antibody, INN chains, looked up, V domains shown) VH: EVQLVESGGGVVQPGRSLRLSCSASGFTFSGYGLSWVRQAPGKGLEWVAMISSGGSYTYYADSVKGRFAISRDNAKNTLFLQMDSLRPEDTGVYFCARHGDDPAWFAYWGQGTPVTVSS VL: DIQLTQSPSSLSASVGDRVTITCSVSSSISSNNLHWYQQKPGKAPKPWIYGTSNLASGVPSRFSGSGSGTDYTFTISSLQPEDIATYYCQQWSSYPYMYTFGQGTKVEIKR"
0.108,0.000121,861000,0.000139,1.29e+06,0.000159,289000,0.65,0.000193,297000,0.14,0.55,"Mov19 IgG (antibody, from a related filing, V domains shown, part only) VH: QVQLQQSGAELVKPGASVKISCKASGYSFTGYFMNWVKQSHGKSLEWIGRIHPYDGDTFYNQNFKDKATLTVDKSSNTAHMELLSLTSEDFAVYYCTRYDGSRAMDYWGQGTTVTVSS VL: DIELTQSPASLAVSLGQRAIISCKASQSVSFAGTSLMHWYHQKPGQQPKLLIYRASNLEAGVPTRFSGSGSKTDFTLNIHPVEEEDAATYYCQQSREYPYTFGGGTKLEIK"
